Experimental data taken from the RNAGym collection of RNA variant scans (doi:10.1021/acssynbio.7b00057).

B1: Pistol ribozyme (parent)
chain: GGGUCGUUGUUCCAUAAUCGCGUGGAUAUGGCACGCAAGUUUCUACCGGGCACCGUAAAUGUCCGACUGGAGCCGUUCGGGCGGCUAUAAACAGACCUCAGGCCCGAAGCGUGGCGGCACCUGCCGCCGGUGGUAAAAAAGAUCGGAAGAGCACACGUCU

Variants of: B1
Test: aptazyme ON/OFF ratio, guanine; higher = stronger switching; co-transcriptional cleavage with and without guanine

Aptazyme ON/OFF ratio, 1.02:
U7G U8A G9C C13G
U7G U8A G9C U10C U11G C12G C13G
U7G U8A G9C U10C U11G C12G C13U
U7G U8A G9C U10C U11G C12G C13A
U7G U8A G9U U10A C13U
U7G U8A G9C C12G C13A
U7G U8A G9C U11A C13G
U7G U8A G9C U10A U11G C12A
U7G U8A G9U U10A U11C C12A C13G
U7G U8A G9C U10C U11G C12A C13A
U7G U8A G9C U10C U11A C12U C13A
U7G U8A G9C U10G U11C C12A C13G
U7G U8A G9C U10A U11A C12A C13U
U7G U8A G9C U10A U11G C13A
U7G U8A G9C U10A U11G C13U
U7G U8A G9C U10G U11A C12U
U7G U8A G9C U10A U11G C12U C13A
U7G U8A G9C U10C C12A
U7G U8A G9C U11A C12U C13U
U7G U8A G9C U10C U11C C12U C13A
U7G U8A G9C U10G U11C C13U

Aptazyme ON/OFF ratio, 2.1:
U7G U8A G9C U10C

Aptazyme ON/OFF ratio, 1.15:
U7G U8A G9C U10G U11G C12U C13U

Aptazyme ON/OFF ratio, 1.44:
U7G U8A G9A U11G C12U

Aptazyme ON/OFF ratio, 1.23:
U7G U8A G9A U11C C12U C13A

Aptazyme ON/OFF ratio, 1.06:
U7G U8A G9C U10G C12A C13A
U7G U8A G9U U10A C13A
U7G U8A G9C C12G C13U
U7G U8A G9U C12U C13A
U7G U8A G9C U10G C12G C13A
U7G U8A G9U U10A U11A C12G C13U
U7G U8A G9A U11C C13U
U7G U8A G9A U11C C13G
U7G U8A G9C U10G C12U C13U
U7G U8A G9C U10G C12U C13A
U7G U8A G9C U10G U11G C12G
U7G U8A G9U U10A C12U C13G
U7G U8A G9C U10G U11A C12G
U7G U8A G9C U10C C12U
U7G U8A G9C U10A U11C C12U C13G
U7G U8A G9C U10G U11C C13G
U7G U8A G9C U11C C13A

Aptazyme ON/OFF ratio, 1.05:
U7G U8A G9C U10G C12A C13U
U7G U8A G9C U10C U11C C12G C13A
U7G U8A G9C U11A C13A
U7G U8A G9C U10C U11C C12A C13A
U7G U8A G9C U10G U11C C12U C13A
U7G U8A G9C U10A U11A C12U C13U
U7G U8A G9C U10A U11A C12U C13G
U7G U8A G9U U10A U11A C12G C13A
U7G U8A G9C U10G U11C C12A C13U
U7G U8A G9C U10G U11C C12U
U7G U8A G9C U10A C12U C13U
U7G U8A G9C U11G C12U C13A
U7G U8A G9C U10A U11G C13G
U7G U8A G9C U11C
U7G U8A G9U U10A C12G C13A
U7G U8A G9C U11C C13G
U7G U8A G9C U11C C13U

Aptazyme ON/OFF ratio, 1.17:
U7G U8A G9A U11C C12U C13U

Aptazyme ON/OFF ratio, 1.12:
U7G U8A G9C
U7G U8A G9C U10C U11G C12U

Aptazyme ON/OFF ratio, 1.1:
U7G U8A G9C U10G C13U
U7G U8A G9C U10G
U7G U8A G9A U11G C12G C13U
U7G U8A G9U U10A U11C C12A C13A
U7G U8A G9A U11C C12G C13U

Aptazyme ON/OFF ratio, 1.29:
U7G U8A G9A U11C C12U C13G

Aptazyme ON/OFF ratio, 1.11:
U7G U8A G9C U10G C13A

Aptazyme ON/OFF ratio, 1.08:
U7G U8A G9A U11G C12A
U7G U8A G9C U10G C12G C13G
U7G U8A G9C U10G U11G C12A
U7G U8A G9A U11C C12G C13A
U7G U8A G9C U10C U11G C12A

Aptazyme ON/OFF ratio, 1.07:
U7G U8A G9C U10A
U7G U8A G9U C12U C13G
U7G U8A G9U C12U C13U
U7G U8A G9C U10G U11G C12U C13A
U7G U8A G9C U10G U11C C12A C13A
U7G U8A G9C U10C C12G C13U
U7G U8A G9A U11C C13A
U7G U8A G9C U11G C12U C13G
U7G U8A G9U U10A C12U C13A
U7G U8A G9U U10A C12U C13U
U7G U8A G9U U10A U11C C12A
U7G U8A G9C U10C C12G
U7G U8A G9U U10A C12G C13G

Aptazyme ON/OFF ratio, 1.32:
U7G U8A G9C U10G U11G C12U

Aptazyme ON/OFF ratio, 0.956:
U7G U8A G9C U10A C12U C13G

Aptazyme ON/OFF ratio, 1.19:
U7G U8A G9C U11G C12U C13U

Aptazyme ON/OFF ratio, 1.41:
U7G U8A G9A U11G C12G

Aptazyme ON/OFF ratio, 1:
U7G U8A G9C U10C U11C C12A C13G
U7G U8A G9C U10C U11G C12A C13G
U7G U8A G9C U11A C12G C13G
U7G U8A G9C U10G U11A C12A

Aptazyme ON/OFF ratio, 1.01:
U7G U8A G9C U11G C12G C13A
U7G U8A G9C U10C U11G C12A C13U
U7G U8A G9C U10C C12G C13G
U7G U8A G9C U10C U11C C13G
U7G U8A G9C U10A U11G C12U C13G
U7G U8A G9C U10C C13G
U7G U8A G9C U10C C13A
U7G U8A G9C U10C U11C C12U C13U

Aptazyme ON/OFF ratio, 1.14:
U7G U8A G9A U11G C12G C13A
U7G U8A G9A U11G C12G C13G
U7G U8A G9C U10C C12G C13A
U7G U8A G9C U11A

Aptazyme ON/OFF ratio, 1.04:
U7G U8A G9C U10C U11C C12G C13G
U7G U8A G9C C13U
U7G U8A G9C C13A
U7G U8A G9C C12G C13G
U7G U8A G9C U10A U11C C13G
U7G U8A G9C U10A U11C C13A
U7G U8A G9C U10A U11C C13U
U7G U8A G9C U11A C13U
U7G U8A G9C U10G U11C C12U C13U
U7G U8A G9C U10C U11A C12U C13G
U7G U8A G9C U10A U11A C12U C13A
U7G U8A G9C U10C U11G C13A
U7G U8A G9C U10A U11A C12A C13A
U7G U8A G9C U10G U11C C12A
U7G U8A G9C U10G U11C C12G
U7G U8A G9C U11A C12G C13A
U7G U8A G9C U11A C12G C13U
U7G U8A G9C U11G
U7G U8A G9C U10A U11G C12U C13U
U7G U8A G9C U10C C13U
U7G U8A G9A U11C C12G C13G
U7G U8A G9C U10A U11C C12U C13U
U7G U8A G9U U10A C12G C13U
U7G U8A G9C U10C U11C C12U C13G
U7G U8A G9C U10A U11C C12G C13G
U7G U8A G9C U10A U11C C12G C13U
U7G U8A G9C U10A U11C C12G C13A
U7G U8A G9C U10G U11A C12A C13A

Aptazyme ON/OFF ratio, 1.18:
U7G U8A G9C U10G C12G C13U
U7G U8A G9A U11C C12U

Aptazyme ON/OFF ratio, 2.15:
U7G U8A G9U

Aptazyme ON/OFF ratio, 1.03:
U7G U8A G9C U10G C12A C13G
U7G U8A G9C U10C U11C C12G C13U
U7G U8A G9C U10A U11A C12G
U7G U8A G9C U10A U11A C12A
U7G U8A G9C U10A U11A C12U
U7G U8A G9U U10A C13G
U7G U8A G9C U10A U11G C12G
U7G U8A G9C U10A U11G C12U
U7G U8A G9C U11G C12G C13U
U7G U8A G9C U11G C12G C13G
U7G U8A G9C U10C U11C C12A C13U
U7G U8A G9C U10G U11G C12U C13G
U7G U8A G9C U10G U11C C12U C13G
U7G U8A G9C U10C U11A C12U C13U
U7G U8A G9C U10C U11G C13G
U7G U8A G9C U10C U11G C13U
U7G U8A G9C U10A U11A C12A C13G
U7G U8A G9C U10G C12U C13G
U7G U8A G9C U10A C12U C13A
U7G U8A G9C U10C U11C C13U
U7G U8A G9C U10C U11C C13A
U7G U8A G9C U11A C12U C13A
U7G U8A G9C U11A C12U C13G
U7G U8A G9C U10A U11C C12U C13A
U7G U8A G9C U10C U11G C12G
U7G U8A G9C U10G U11C C13A

Aptazyme ON/OFF ratio, 1.09:
U7G U8A G9C U10G C13G
U7G U8A G9U U10A U11A C12G C13G

Aptazyme ON/OFF ratio, 1.26:
U7G U8A G9A U11G
